The text below walks through data of patent publication US20230356187A1.

Experiment [1] has as its target purified antibody (KBIO, Korea). Put plainly: 1 ml resin column; purified antibody bound, eluted and measured after 15 cycles of 0.3 M NaOH; reference Capto L.
The target is the same in experiment [2]. Put plainly: 1 ml resin column; purified antibody bound, eluted and measured after 15 cycles of 0.3 M NaOH (15 min each).

B1: variant protein 4mBF (mBF tetramer) (designed binder)
chain: MPKEEVTIKANLIFADGKTQTAEFKGTFGEATAEAYRYADLLAPENGKYTVDVADKGYTLNIKFAGKEKTPEEMPKEEVTIKANLIFADGKTQTAEFKGTFGEATAEAYRYADLLAPENGKYTVDVADKGYTLNIKFAGKEKTPEEMPKEEVTIKANLIFADGKTQTAEFKGTFGEATAEAYRYADLLAPENGKYTVDVADKGYTLNIKFAGKEKTPEEMPKEEVTIKANLIFADGKTQTAEFKGTFGEATAEAYRYADLLAPENGKYTVDVADKGYTLNIKFAGKEKTPEE
B1 showed a residual activity relative to Cytiva's product (Capto L) in experiment [1] of 1.4 times. Further, in experiment [2], the residual activity (antibody recovered after 15 alkali treatments, relative to the initial binding) was 43.5%.
